Data on one substance can be found in article PMC10853514.

The assay has as its target human myosin VI heavy chain, full length, containing both the large-insertion (LI) and small-insertion (SI) regions (human) (UniProt Q9UM54). Nature of the assay: cryo-EM structure; single-particle cryo-EM of myosin VI/CaM in PB, TB + AMPPNP and PB + ATP, the three datasets combined; autoinhibited state, 3.54 Å (4.14 Å map with the SAH-E).

Chain of human myosin VI heavy chain, full length, containing both the large-insertion (LI) and small-insertion (SI) regions (human) (Q9UM54 other isoform, or with tags, fused parts or gaps): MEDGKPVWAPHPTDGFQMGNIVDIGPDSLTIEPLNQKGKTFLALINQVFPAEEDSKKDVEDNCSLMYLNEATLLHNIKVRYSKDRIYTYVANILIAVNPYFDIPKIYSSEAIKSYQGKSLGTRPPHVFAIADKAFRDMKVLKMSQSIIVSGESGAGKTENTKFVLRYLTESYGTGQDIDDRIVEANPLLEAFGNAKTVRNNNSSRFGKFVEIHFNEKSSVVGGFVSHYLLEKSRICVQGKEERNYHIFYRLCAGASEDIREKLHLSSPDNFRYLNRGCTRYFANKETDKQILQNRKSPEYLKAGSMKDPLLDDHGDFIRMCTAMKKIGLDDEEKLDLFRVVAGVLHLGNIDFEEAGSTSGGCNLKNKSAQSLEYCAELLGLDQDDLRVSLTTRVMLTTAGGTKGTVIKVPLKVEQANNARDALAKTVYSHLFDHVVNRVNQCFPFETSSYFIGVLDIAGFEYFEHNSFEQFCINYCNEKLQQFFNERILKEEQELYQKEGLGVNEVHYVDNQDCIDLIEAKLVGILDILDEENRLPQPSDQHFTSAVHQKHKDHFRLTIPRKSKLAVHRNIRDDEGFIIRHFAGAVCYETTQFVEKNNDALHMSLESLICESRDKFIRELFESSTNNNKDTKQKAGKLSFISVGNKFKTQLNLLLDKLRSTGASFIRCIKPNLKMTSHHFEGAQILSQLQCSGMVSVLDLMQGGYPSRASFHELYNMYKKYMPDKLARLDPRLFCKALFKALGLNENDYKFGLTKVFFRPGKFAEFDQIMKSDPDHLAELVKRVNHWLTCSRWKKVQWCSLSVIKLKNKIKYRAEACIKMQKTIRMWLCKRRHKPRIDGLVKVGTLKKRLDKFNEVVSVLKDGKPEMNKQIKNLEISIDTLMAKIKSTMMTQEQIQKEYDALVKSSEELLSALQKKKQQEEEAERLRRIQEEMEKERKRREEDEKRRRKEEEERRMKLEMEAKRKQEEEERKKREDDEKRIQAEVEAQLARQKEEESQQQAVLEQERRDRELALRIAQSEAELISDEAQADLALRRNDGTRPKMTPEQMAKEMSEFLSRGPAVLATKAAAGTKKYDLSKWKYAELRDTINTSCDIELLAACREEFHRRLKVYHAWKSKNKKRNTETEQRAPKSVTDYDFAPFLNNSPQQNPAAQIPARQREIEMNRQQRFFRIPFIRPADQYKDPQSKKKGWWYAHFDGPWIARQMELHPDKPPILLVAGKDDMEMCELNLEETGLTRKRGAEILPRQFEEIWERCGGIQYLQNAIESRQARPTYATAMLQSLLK

One may read the stoichiometry N as the number of molecules, sites or subunits per partner or assembly. Consider “calmodulin (CaM), light chain of myosin VI (from UniProt P0DP23 1-149) (natural protein)”, for which the stoichiometry N is 2.
